Reference: patent US20090233982
Where two headings read alike, the source gives them in different places.

What was measured:
[1] = biological target: Misu (full length, mouse) (Mus musculus) (UniProt Q1HFZ0); details: 14C-SAM incorporation, 37 C 1 h
[2] = tested on: Dnmt1 (Mus musculus); details: 14C-SAM incorporation; as efficient as Misu
[3] = biological target: Misu (full length, mouse) (Mus musculus) (UniProt Q1HFZ0); details: 14C-SAM incorporation, 37 C 1 h, DNase treated; about two fold without DNase

Chain of Misu (full length, mouse) (Mus musculus) (Q1HFZ0 whole entry): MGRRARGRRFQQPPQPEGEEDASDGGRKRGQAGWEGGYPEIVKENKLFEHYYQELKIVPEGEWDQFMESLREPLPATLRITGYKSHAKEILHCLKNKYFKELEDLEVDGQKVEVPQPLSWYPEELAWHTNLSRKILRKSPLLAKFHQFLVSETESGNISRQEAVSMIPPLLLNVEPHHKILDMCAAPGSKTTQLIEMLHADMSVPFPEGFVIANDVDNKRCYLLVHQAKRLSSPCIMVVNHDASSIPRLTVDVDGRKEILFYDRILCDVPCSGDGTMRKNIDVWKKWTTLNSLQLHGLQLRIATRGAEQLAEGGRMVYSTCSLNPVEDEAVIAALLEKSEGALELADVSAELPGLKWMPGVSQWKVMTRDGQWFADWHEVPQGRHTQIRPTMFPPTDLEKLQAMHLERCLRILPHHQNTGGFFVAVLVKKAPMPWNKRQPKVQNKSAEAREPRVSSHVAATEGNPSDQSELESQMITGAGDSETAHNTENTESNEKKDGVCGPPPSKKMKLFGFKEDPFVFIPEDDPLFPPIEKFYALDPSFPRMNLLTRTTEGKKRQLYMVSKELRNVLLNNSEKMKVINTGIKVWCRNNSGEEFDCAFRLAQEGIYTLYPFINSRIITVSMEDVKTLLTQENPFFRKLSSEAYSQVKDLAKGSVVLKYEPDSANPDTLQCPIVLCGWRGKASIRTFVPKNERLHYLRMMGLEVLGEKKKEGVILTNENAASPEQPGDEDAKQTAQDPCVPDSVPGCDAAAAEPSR

| Substance | activity (fold over control) ([1]; 5mC on one strand (hemi-methylated), retained after RNase) | activity (fold over control) [2] | activity (fold over control) [3] | activity (fold over control) [1] |
| --- | --- | --- | --- | --- |
| hemi-methylated double stranded oligonucleotide | 2 | – | – | – |
| E. coli tRNA | – | 2 | 3 | – |
| E. coli rRNA | – | 2 | – | 2 |
